Results taken from paper PMC5750076 (2017).

Target: mTORΔN-mLST8 mTORΔN (Homo sapiens, UniProt P42345)
Assay: kinase inhibition assay

Ki: ~52 µM
B1: PRAS40 114-256 (protein)
chain: not shown
